Biological target: the molecule itself
Test: crystal structure; non-tagged PAC3 homodimer, 8.0 mg/mL in 20 mM Tris-HCl pH 7.5, 150 mM NaCl; crystals from 30% PEG2000 monomethyl ether, 0.1 M potassium thiocyanate, 20 °C; space group P3(1)21, 0.96 Å

B1: human PAC3 homodimer, non-tagged (natural protein)
chain: MEDTPLVISKQKTEVVCGVPTQVVCTAFSSHILVVVTQFGKMGTLVSLEPSSVASDVSKPVLTTKVLLGQDEPLIHVFAKNLVAFVSQEAGNRAVLLAVAVKDKSMEGLKALREVIRVCQVW
notes: human proteasome-assembling chaperone PAC3; source: E. coli BL21-CodonPlus (DE3)-RIL, purified
binding result: binds
